Source: article PMC3087862 (Nature structural & molecular biology, 2011)

Biological target: the molecule itself
Assay: SEC

B1: human Hsp90α two-domain construct MC (293-732) (domain or fragment)
chain: not shown
stoichiometry N: 2

B2: human Hsp90α full-length protein without part of the N-M linker (Hsp90Δ; 1-732, 241-268 deleted) (natural protein)
chain: not shown
stoichiometry N: 2
